Key:
[1] = test system: iPSC-derived DE cells; experiment: Extracellular matrix protein effects on DE cell adhesion and differentiation; format: cell-based, human; conditions: ECM-coated plates, media with NOGGIN/SB-431542
Procedure: (§1) DE generated by exposure to activin A were trypsinized, reseeded at a ratio of 1:1-2 on human ECM protein-coated plates and differentiated to anterior foregut endoderm with IMDM+5% FBS, 2 mM L-glutamine, 1 mM nonessential amino acids, 1% antibiotic-antimycotic supplemented with 200 ng/ml NOGGIN and […] SB-431542 for 2 days (Longmire T A, et al. 2012. Cell Stem Cell 10(4):398-411, Green M D, et al. 2011. Nat Biotechnol 29(3):267-272).
Total RNA was extracted using the RNeasy Mini Kit from Qiagen, following the manufacturer's instructions. First-strand complementary DNA (cDNA) was synthesized with random hexamers as primers, using SuperScript First-Strand Synthesis System according to manufacturer's protocol (Invitrogen). Each sample was run in triplicate with iQ™ SYBR Green Supermix (Bio-Rad). PCR conditions included an initial denaturation step of 4 min at 95° C., followed by 40 cycles of PCR consisting of 15s at 95° C., 30 s at 60° C., and 30 s at 72° C. Average threshold cycle (Ct) values from the triplicate PCR reactions for a gene of interest (GOI) were normalized against average GAPDH Ct values from the same cDNA sample. Fold change of GOI transcript levels between sample A and sample B equals 2^−ΔΔCt, where ΔCt=Ct(GOI)−Ct(GAPDH), and ΔΔCt=ΔCt(A)−ΔCt(B). […]

[2] = test system: iPSC-AETII cells; experiment: Differentiation of iPSC-derived AETII cells to AETI cells with IWR-1; format: cell-based, human
Procedure: Differentiated cells at day 22 were then maintained in DMEM medium with 10% FBS, 2 mM L-glutamine, 1 mM nonessential amino acids, 1% antibiotic-antimycotic and […] IWR-1 for 7 days.
(§2) For flow cytometry, cells were dissociated into single-cell suspensions by incubation with 0.25% trypsin for 2 min, and fixed (Fixation/Permeabilization kit, BD Biosciences). After blocking for 30 min on ice, the cells were incubated with primary antibody in blocking solution for 30 min on ice. The cells were resuspended in 350 μl of Perm/Wash buffer after incubation with conjugated secondaries for 30 min on ice, washed twice, and analyzed by flow cytometry. See Table 1 for antibody information.
Total RNA was extracted using the RNeasy Mini Kit from Qiagen, following the manufacturer's instructions. First-strand complementary DNA (cDNA) was synthesized with random hexamers as primers, using SuperScript First-Strand Synthesis System according to manufacturer's protocol (Invitrogen). Each sample was run in triplicate with iQ™ SYBR Green Supermix (Bio-Rad). PCR conditions included an initial denaturation step of 4 min at 95° C., followed by 40 cycles of PCR consisting of 15s at 95° C., 30 s at 60° C., and 30 s at 72° C. Average threshold cycle (Ct) values from the triplicate PCR reactions for a gene of interest (GOI) were normalized against average GAPDH Ct values from the same cDNA sample. Fold change of GOI transcript levels between sample A and sample B equals 2^−ΔΔCt, where ΔCt=Ct(GOI)−Ct(GAPDH), and ΔΔCt=ΔCt(A)−ΔCt(B).

[3] = test system: human iPS cells (C1 and C2 clones); experiment: Differentiation of iPS cells to definitive endoderm with activin A, flow cytometry; format: cell-based; conditions: for endodermal cells based on dual expression of SOX17 and FOXA2: day 6
Procedure: Human iPSCs were differentiated to alveolar epithelium in a directed differentiation protocol via definitive endoderm (DE) and anterior foregut endoderm (AFE). iPS cells were differentiated towards definitive endoderm under conditions described previously (Duan Y, et al. 2010. Stem Cells 28(4):674-686, Kubo A, et al. 2004. Development. 131(7):1651-1662). Briefly, h-iPSC were cultured in RPMI 1640 medium supplemented with 100 ng/ml activin A, 2 mM L-glutamine and 1% antibiotic-antimycotic for 48 hours; 1xB27 supplement, 0.5 mM sodium butyrate and 0.1% FBS were added into the same medium and the cells were cultured for another 4 days, with daily medium changes (D'Amour K A, et al. 2005. Nat Biotechnol 23(12):1534-1541).
as §2

[4] = test system: iPSC-derived definitive endoderm cells; experiment: Differentiation of definitive endoderm to anterior foregut endoderm with NOGGIN/SB-431542, flow cytometry; format: cell-based, human
Procedure: as §1, §2

[5] = 100 mM IWR-1 for 7 days from day 22, flow cytometry, C1 clone
[6] = C1 clone, day 6, 100 ng/ml activin A, flow cytometry
[7] = C2 clone, day 6, 100 ng/ml activin A, flow cytometry
[8] = continuous activin A from day 6 to day 8 without NOGGIN/SB-431542

## laminin
[1]
  DE cell attachment: attach well

## O=C(Nc1cccc2cccnc12)c1ccc(N2C(=O)[C@@H]3[C@H](C2=O)[C@@H]2C=C[C@H]3C2)cc1 [IWR-1]
[2]; [5]
  cells expressing T1α: ≤ 88%
  cells positive for aquaporin-5 (AQ5): up to 92%
  cells positive for caveolin-1: ≤ 98%
[2]; AETII exposed to Wnt/β-catenin inhibitor
  AETI cells positive for the type I markers T1α and caveolin-1: more than 90%
[2]; IWR-1 treated versus untreated AETII
  AETI markers AQ5, T1α and caveolin-1 by immunostaining: significant increase
[2]; after IWR-1, flow cytometry
  AETII cell marker SPC: decreased significantly
[2]; iPSC-AETII cells exposed to IWR-1 versus freshly isolated human primary alveolar type I cells
  expression of type I cell markers by quantitative RT-PCR: comparable to expression levels of freshly isolated human primary alveolar type I cells

## Fibronectin
[1]
  DE cell attachment: attach well

B1: activin A: soluble cytokine activating the nodal receptor, used at 100 ng/ml to induce definitive endoderm (protein, UniProt P08476 311-426, looked up)
Inhibin beta A chain: GLECDGKVNICCKKQFFVSFKDIGWNDWIIAPSGYHANYCEGECPSHIAGTSGSSLSFHSTVINHYRMRGHSPFANLKSCCVPTKLRPMSMLYYDDGQNIIKKDIQNMIVEECGCS
modifications: Inhibin beta A chain
[3]; C1 clone
  endodermal cells based on dual expression of SOX17 and FOXA2: more than 85%
[3]; [6]
  percentage of cells expressing CXCR4: 92.71±4.0%
  percentage of cells expressing FOXA2: 87.66±1.2%
[3]; C2 clone
  endodermal cells based on dual expression of SOX17 and FOXA2: > 89%
[3]; [7]
  percentage of cells expressing CXCR4: 87.23±2.0%
  percentage of cells expressing FOXA2: 83.54±1.8%
  percentage of cells expressing SOX17: 91.42±3.0%
[4]; activin A induced cells without NOGGIN/SB-431542, day 13
  cells positive for NKX2.1: < 1%
[4]; [8]
  FOXA2+/SOX2+ cells: rare
  NKX2.1+ cells: few
